Assay results published in IntAct's records for PubMed 18562279.

Biological target: akt1_human AKT1 (UniProt P31749)
Sequence (P31749 whole entry): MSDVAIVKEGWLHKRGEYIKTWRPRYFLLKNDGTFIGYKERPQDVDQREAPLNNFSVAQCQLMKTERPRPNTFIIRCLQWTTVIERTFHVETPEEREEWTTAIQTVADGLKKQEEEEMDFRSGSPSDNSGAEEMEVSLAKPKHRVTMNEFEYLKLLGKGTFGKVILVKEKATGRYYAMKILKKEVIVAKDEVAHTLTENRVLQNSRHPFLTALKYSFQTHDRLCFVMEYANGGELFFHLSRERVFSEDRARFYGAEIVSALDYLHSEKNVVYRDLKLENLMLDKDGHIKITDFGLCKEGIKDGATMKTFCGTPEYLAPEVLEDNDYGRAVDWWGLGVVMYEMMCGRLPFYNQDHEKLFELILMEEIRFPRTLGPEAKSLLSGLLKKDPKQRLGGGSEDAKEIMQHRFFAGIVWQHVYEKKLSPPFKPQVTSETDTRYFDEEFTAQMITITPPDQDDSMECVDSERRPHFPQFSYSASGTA

Substance | effect of a mutation on the interaction
THO complex subunit 4 (Homo sapiens) (from UniProt Q86V81) T219A | disrupting interaction
THO complex subunit 4 (Homo sapiens) (from UniProt Q86V81) S34A | disrupting interaction
